Results taken from ChEMBL document CHEMBL1140886, “Development of an optimized activatable MMP-14 targeted SPECT imaging probe” (Bioorg Med Chem, 2009).

Substrate: CC[C@H](C)[C@H](NC(=O)[C@H](CCCNC(=N)N)NC(=O)CNC(=O)[C@@H](N)CO)C(=O)NCC(=O)N[C@@H](Cc1ccccc1)C(=O)N[C@@H](CC(C)C)C(=O)N[C@@H](CCCNC(=N)N)C(=O)N[C@H](C(=O)N[C@@H](C)C(=O)O)[C@@H](C)O
Assay: Ratio of kcat/km for MMP9 assessed as drug cleavage

B1: Matrix metalloproteinase-9 (Homo sapiens), P14780 (protein)
chain: MSLWQPLVLVLLVLGCCFAAPRQRQSTLVLFPGDLRTNLTDRQLAEEYLYRYGYTRVAEMRGESKSLGPALLLLQKQLSLPETGELDSATLKAMRTPRCGVPDLGRFQTFEGDLKWHHHNITYWIQNYSEDLPRAVIDDAFARAFALWSAVTPLTFTRVYSRDADIVIQFGVAEHGDGYPFDGKDGLLAHAFPPGPGIQGDAHFDDDELWSLGKGVVVPTRFGNADGAACHFPFIFEGRSYSACTTDGRSDGLPWCSTTANYDTDDRFGFCPSERLYTQDGNADGKPCQFPFIFQGQSYSACTTDGRSDGYRWCATTANYDRDKLFGFCPTRADSTVMGGNSAGELCVFPFTFLGKEYSTCTSEGRGDGRLWCATTSNFDSDKKWGFCPDQGYSLFLVAAHEFGHALGLDHSSVPEALMYPMYRFTEGPPLHKDDVNGIRHLYGPRPEPEPRPPTTTTPQPTAPPTVCPTGPPTVHPSERPTAGPTGPPSAGPTGPPTAGPSTATTVPLSPVDDACNVNIFDAIAEIGNQLYLFKDGKYWRFSEGRGSRPQGPFLIADKWPALPRKLDSVFEERLSKKLFFFSGRQVWVYTGASVLGPRRLDKLGLGADVAQVTGALRSGRGKMLLFSGRRLWRFDVKAQMVDPRSASEVDRMFPGVPLDTHDVFQYREKAYFCQDRFYWRVSSRSELNQVDQVGYVTYDILQCPED
kcat/Km: 20000 M⁻¹ s⁻¹
